# Results published in patent publication US8715959B2, “Substitution mutant receptors and their use in a nuclear receptor-based inducible gene expression system” (priority 2001, dated 2014).
# Changes are numbered by the printed parent chain. Names may count otherwise.
# B1: V107I/R175E: CfEcR-DEF LBD double mutant, V107I and R175E (protein, listed as Choristoneura fumiferana)
# chain: LTANQQFLIARLIWYQDGYEQPSDEDLKRITQTWQQADDENEESDTPFRQITEMTILTVQLIVEFAKGLPGFAKISQPDQITLLKACSSEVMMLRVARRYDAASDSILFANNQAYTRDNYRKAGMAYVIEDLLHFCRCMYSMALDNIHYALLTAVVIFSDRPGLEQPQLVEEIQEYYLNTLRIYILNQLSGSARSSVIYGKILSILSELRTLGMQNSNMCISLKLKNRKLPPFLEEIWDV
# B2: V96T/V107I/R175E: CfEcR-DEF LBD triple mutant, V96T, V107I and R175E (protein, listed as Choristoneura fumiferana)
# chain: B1 chain with V96T
# B3: V107I/YL27E/R175E: CfEcR-DEF LBD triple mutant, V107I, Y127E and R175E (protein, listed as Choristoneura fumiferana)
# chain: B1 chain with Y127E
# B4: T52A/V107I/R175E: CfEcR-DEF LBD triple mutant, T52A, V107I and R175E (protein, listed as Choristoneura fumiferana)
# chain: B1 chain with T52A
# B5: V107I/Y127E: CfEcR-DEF LBD double mutant, Valine (V) to Isoleucine (I) and Tyrosine (Y) to Glutamine (E) (protein, listed as Choristoneura fumiferana)
# chain: B1 chain with Y127E, E175R
# B6: T52V/V107I/R175E: CfEcR-DEF LBD triple mutant, T52V, V107I and R175E (protein, listed as Choristoneura fumiferana)
# chain: B1 chain with T52V
# B7: Y127E/R175E: CfEcR-DEF LBD double mutant, Y127E and R175E (protein, listed as Choristoneura fumiferana)
# chain: B1 chain with I107V, Y127E
# B8: R175E: CfEcR-DEF LBD substitution mutant, Arginine (R) to Glutamine (E) (protein, listed as Choristoneura fumiferana)
# chain: B1 chain with I107V
# B9: V96A/V107I/R175E: CfEcR-DEF LBD triple mutant, V96A, V107I and R175E (protein, listed as Choristoneura fumiferana)
# chain: B1 chain with V96A
# B10: V107I: CfEcR-DEF LBD substitution mutant, Valine (V) to Isoleucine (protein, listed as Choristoneura fumiferana)
# chain: B1 chain with E175R
# B11: T58A: CfEcR-DEF LBD substitution mutant, Threonine (T) to Alanine (A) (protein, listed as Choristoneura fumiferana)
# chain: B1 chain with T58A, I107V, E175R
# B12: T55A: CfEcR-DEF LBD substitution mutant, Threonine (T) to Alanine (A) (protein, listed as Choristoneura fumiferana)
# chain: B1 chain with T55A, I107V, E175R
# B13: T52V: CfEcR-DEF LBD substitution mutant, Threonine (T) to Valine (V) (protein, listed as Choristoneura fumiferana)
# chain: B1 chain with T52V, I107V, E175R
# B14: V59A: CfEcR-DEF LBD substitution mutant, Valine (V) to Alanine (A) (protein, listed as Choristoneura fumiferana)
# chain: B1 chain with V59A, I107V, E175R
# B15: T52A: CfEcR-DEF LBD substitution mutant, Threonine (T) to Alanine (A) (protein, listed as Choristoneura fumiferana)
# chain: B1 chain with T52A, I107V, E175R
# B16: V96D: CfEcR-DEF LBD substitution mutant, Valine (V) to Aspartic Acid (D) (protein, listed as Choristoneura fumiferana)
# chain: B1 chain with V96D, I107V, E175R
# B17: V96T: CfEcR-DEF LBD substitution mutant, Valine (V) to Threonine (T) (protein, listed as Choristoneura fumiferana)
# chain: B1 chain with V96T, I107V, E175R
# B18: E20A: CfEcR-DEF LBD substitution mutant, Glutamic Acid (E) to Alanine (A) (protein, listed as Choristoneura fumiferana)
# chain: B1 chain with E20A, I107V, E175R
# B19: M92A: CfEcR-DEF LBD substitution mutant, Methionine (M) to Alanine (A) (protein, listed as Choristoneura fumiferana)
# chain: B1 chain with M92A, I107V, E175R
# B20: V96A: CfEcR-DEF LBD substitution mutant, Valine (V) to Alanine (A) (protein, listed as Choristoneura fumiferana)
# chain: B1 chain with V96A, I107V, E175R
# B21: T52I: CfEcR-DEF LBD substitution mutant, Threonine (T) to Isoleucine (I) (protein, listed as Choristoneura fumiferana)
# chain: B1 chain with T52I, I107V, E175R
# B22: V96M: CfEcR-DEF LBD substitution mutant, Valine (V) to Methionine (M) (protein, listed as Choristoneura fumiferana)
# chain: B1 chain with V96M, I107V, E175R
# B23: T52L: CfEcR-DEF LBD substitution mutant, Threonine (T) to Leucine (L) (protein, listed as Choristoneura fumiferana)
# chain: B1 chain with T52L, I107V, E175R
# System: CfEcR-DEF
# Assay: GAL4/mutant CfEcR-DEF + VP16/LmUSP-EF GAL4-driven luciferase reporter transactivation in NIH3T3 cells
# Type: cell-based, Choristoneura fumiferana
# Conditions: 10 nM GS™-E non-steroidal ligand; NIH3T3 cells; relative to Gal4/wild-type CfEcR-DEF switch activity
# Experimental: DNAs corresponding to the various switch constructs outlined in Example 1, specifically switches 1.1-1.13, were transfected into mouse NIH3T3 cells (ATCC) or L57 cells (Dr. Peter Cherbas; Indiana University) as follows. Standard methods for culture and maintenance of the cells were followed. […] Superfect™ (Qiagen Inc.) was used for 3T3 cells and Lipofectamine™ (LifeTechnologies) was used for L57 cells as the transfection reagents. For 12-well plates, 4 μl of Superfect™ or Lipofectamine™ was mixed with 100 μl of growth medium. One μg of reporter construct and 0.25 μg of each receptor construct of the receptor pair to be analyzed were added to the transfection mix. […] The cells were harvested and reporter activity was assayed.
# Cells were harvested 40 hours after adding ligands. […] Twenty μl of lysate were assayed.
# Briefly, Applicants mutated amino acid residues predicted to be critical for ecdysteroid binding into alanine and created GAL4/mutantCfEcR-DEF cDNA gene expression cassettes as described in Example 1 above using the Quikchange PCR-mediated site-directed mutagenesis kit (Stratagene, La Jolla, Calif.). The mutated and the WT cDNAs were tested in GAL4-driven luciferase reporter assays.
# DNAs corresponding to the various switch constructs outlined in Example 1, specifically switches 1.1-1.2, were transfected into mouse NIH3T3 cells (ATCC) as follows. […] Two μl of Superfect™ was mixed with 100 μl of growth medium and 50 ng of either GAL4/wild-type EcR or Gal4/mutant EcR cassette, 50 ng of VP16/LmUSP-EF and 200 ng of pFRLuc were added to the transfection mix. […] The cells were harvested and reporter activity was assayed as described above.
row,Molecule,"Fold increase over WT, 10 nM GS™-E [fold]"
1,B1,386.4
2,B2,0.4
3,B3,124.3
4,B4,2.3
5,B5,314.6
6,B6,62.8
7,B7,622.8
8,B8,22.0
9,B9,21.1
10,B10,12.4

# Same assay, conditions: 10 nM PonA steroidal ligand; NIH3T3 cells; relative to Gal4/wild-type CfEcR-DEF switch activity
row,Molecule,"Fold increase over WT, 10 nM PonA [fold]"
1,B1,1194.4
2,B2,485.7
3,B3,122.3
4,B4,20.3
5,B5,35.8
6,B6,136.6
7,B7,42.2
8,B8,11.3
9,B9,1005.1
10,B10,26.6

# Same assay, conditions: 2.5 μM GS™-E non-steroidal ligand; NIH3T3 cells; relative to Gal4/wild-type CfEcR-DEF switch activity
row,Molecule,"Fold increase over WT, 2.5 μM GS™-E [fold]"
1,B11,0.8
2,B12,1.7
3,B13,17.3
4,B14,0.47
5,B15,1.5
6,B16,3.07
7,B17,0.018
8,B18,0.9
9,B19,0.7
10,B20,0.35
11,B21,8
12,B22,122
13,B23,0.26

# Same assay, conditions: 2.5 μM PonA steroidal ligand; NIH3T3 cells; relative to Gal4/wild-type CfEcR-DEF switch activity
row,Molecule,"Fold increase over WT, 2.5 μM PonA [fold]"
1,B11,0.008
2,B12,0.13
3,B13,35.7
4,B14,0.002
5,B15,0.5
6,B16,3.1
7,B17,45
8,B18,0.35
9,B19,0.39
10,B20,408
11,B21,8
12,B22,3.37
13,B23,3.4

# Same assay, conditions: GS™-E; CfEcR-DEF point mutants
row,Molecule,non-steroid activity (summary of Table 10)
1,B11,not significantly affected

# Same assay, conditions: PonA; CfEcR-DEF point mutants
row,Molecule,steroid binding activity (summary of Table 10)
1,B11,essentially eliminated
